Measurements published in patent US7083949.

Biological target: T1, Protein A (UniProt P38507 37-477)
T1 construct: Precipitation reagent; also called Protein A-Sepharose
Experiment: Protein A-Sepharose precipitation, anti-kappa western blot
Procedure: In a different set of experiments the ability of the ligand Traps to multimerize in the presence of ligand was tested.

B1: gp130-CH1•IL-6Rα-κ (other)
chain 1: ELLDPCGYISPESPVVQLHSNFTAVCVLKEKCMDYFHVNANYIVWKTNHFTIPKEQYTIINRTASSVTFTDIASLNIQLTCNILTFGQLEQNVYGITIISGLPPEKPKNLSCIVNEGKKMRCEWDGGRETHLETNFTLKSEWATHKFADCKAKRDTPTSCTVDYSTVYFVNIEVWVEAENALGKVTSDHINFDPVYKVKPNPPHNLSVINSEELSSILKLTWTNPSIKSVIILKYNIQYRTKDASTWSQIPPEDTASTRSSFTVQDLKPFTEYVFRIRCMKEDGKGYWSDWSEEASGITYEDRPSKAPSFWYKIDPSHTQGYRTVQLVWKTLPPFEANGKILDYEVTLTRWKSHLQNYTVNATKLTVNLTNDRYLATLTVRNLVGKSDAAVLTIPACDFQATHPVMDLKAFPKDNMLWVEWTTPRESVKKYILEWCVLSDKAPCITDWQQEDGTVHRTYLRGNLAESKCYLITVTPVYADGPGSPESIKAYLKQAPPSKGPTVRTKKVGKNEAVLEWDQLPVDVQNGFIRNYTIFYRTIIGNETAVNVDSSHTEYTLSSLTSDTLYMVRMAAYTDEGGKDGPEFTFTTPKFAQGEIESGGQGTLVTVSSASTKGPSVFPLAPSSKSTSGGTAALGCLVKDYFPEPVTVSWNSGALTSGVHTFPAVLQSSGLYSLSSVVTVPSSSLGTQTYICNVNHKPSNTKVDKKVEPKSCDKTHT
chain 2: LAPRRCPAQEVARGVLTSLPGDSVTLTCPGVEPEDNATVHWVLRKPAAGSHPSRWAGMGRRLLLRSVQLHDSGNYSCYRAGRPAGTVHLLVDVPPEEPQLSCFRKSPLSNVVCEWGPRSTPSLTTKAVLLVRKFQNSPAEDFQEPCQYSQESQKFSCQLAVPEGDSSFYIVSMCVASSVGSKFSKTQTFQGCGILQPDPPANITVTAVARNPRWLSVTWQDPHSWNSSFYRLRFELRYRAERSKTFTTWMVKDLQHHCVIHDAWSGLRHVVQLRAQEEFGQGEWSEWSPEAMGTPWTESRSPPAENEVSTPMQALTTNKDDDNILFRDSANATSLPVQDAGTVAAPSVFIFPPSDEQLKSGTASVVCLLNNFYPREAKVQWKVDNALQSGNSQESVTEQDSKDSTYSLSSTLTLSKADYEKHKVYACEVTHQGLSSPVTKSFNRGEC
notes: the experiment prints gp130-CH1; also called G16K
binding result: no binding
